Measurements as given in publication PMC4945878.

Tests used:
Claspin Cdel1 = Claspin Cdel1 (human, UniProt Q9HAW4 1-985+=GS+1210-1339, internal_change); assay: EMSA; higher affinity than full-length; 10 mM Tris-HCl pH 7.5, 40 ug/ml BSA, 1 mM DTT, EDTA (50 mM as printed for EMSA; 0.5 mM for filter binding), 20 mM K-glutamate, 8% glycerol, 30 C, 1 h
[1] = biological target: Claspin #25 (N-terminal polypeptide) (human, UniProt Q9HAW4 1-896); assay: EMSA; plus #13 DE/A (aa897-1209) 1.5 or 3 pmol, no significant inhibition; 10 mM Tris-HCl pH 7.5, 40 ug/ml BSA, 1 mM DTT, EDTA (50 mM as printed for EMSA; 0.5 mM for filter binding), 20 mM K-glutamate, 8% glycerol, 30 C, 1 h
Sequence of Claspin #25 (N-terminal polypeptide) (Q9HAW4 1-896): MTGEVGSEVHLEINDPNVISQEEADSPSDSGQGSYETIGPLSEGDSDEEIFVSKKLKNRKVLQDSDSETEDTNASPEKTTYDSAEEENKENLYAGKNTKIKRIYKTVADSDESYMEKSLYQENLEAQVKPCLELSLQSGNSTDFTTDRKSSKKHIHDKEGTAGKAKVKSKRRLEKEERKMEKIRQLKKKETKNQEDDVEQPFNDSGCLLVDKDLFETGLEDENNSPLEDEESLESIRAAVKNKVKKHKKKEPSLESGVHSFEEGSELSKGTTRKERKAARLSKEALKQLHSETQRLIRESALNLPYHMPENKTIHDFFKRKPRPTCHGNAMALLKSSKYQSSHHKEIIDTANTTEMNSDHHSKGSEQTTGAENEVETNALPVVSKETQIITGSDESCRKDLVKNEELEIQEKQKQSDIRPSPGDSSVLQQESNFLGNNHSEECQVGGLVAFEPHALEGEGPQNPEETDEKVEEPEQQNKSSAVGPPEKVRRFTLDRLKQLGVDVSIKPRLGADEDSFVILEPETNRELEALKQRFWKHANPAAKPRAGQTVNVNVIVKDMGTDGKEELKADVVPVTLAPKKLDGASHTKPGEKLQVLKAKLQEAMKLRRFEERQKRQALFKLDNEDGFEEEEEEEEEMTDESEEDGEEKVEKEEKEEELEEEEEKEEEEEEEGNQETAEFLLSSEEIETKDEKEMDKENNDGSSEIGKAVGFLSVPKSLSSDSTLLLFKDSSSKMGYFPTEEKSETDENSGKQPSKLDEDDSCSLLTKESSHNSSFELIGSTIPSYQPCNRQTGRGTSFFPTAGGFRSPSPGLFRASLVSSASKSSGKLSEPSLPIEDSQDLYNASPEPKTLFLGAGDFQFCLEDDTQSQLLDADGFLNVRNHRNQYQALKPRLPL

[2] = biological target: Claspin wild-type full-length (human, UniProt Q9HAW4 1-1339); assay: EMSA; 0.5 and 1.0 pmol protein, 20 fmol DNA; much lower affinity than C-terminal deletions; 10 mM Tris-HCl pH 7.5, 40 ug/ml BSA, 1 mM DTT, EDTA (50 mM as printed for EMSA; 0.5 mM for filter binding), 20 mM K-glutamate, 8% glycerol, 30 C, 1 h
Sequence of Claspin wild-type full-length (Q9HAW4 whole entry): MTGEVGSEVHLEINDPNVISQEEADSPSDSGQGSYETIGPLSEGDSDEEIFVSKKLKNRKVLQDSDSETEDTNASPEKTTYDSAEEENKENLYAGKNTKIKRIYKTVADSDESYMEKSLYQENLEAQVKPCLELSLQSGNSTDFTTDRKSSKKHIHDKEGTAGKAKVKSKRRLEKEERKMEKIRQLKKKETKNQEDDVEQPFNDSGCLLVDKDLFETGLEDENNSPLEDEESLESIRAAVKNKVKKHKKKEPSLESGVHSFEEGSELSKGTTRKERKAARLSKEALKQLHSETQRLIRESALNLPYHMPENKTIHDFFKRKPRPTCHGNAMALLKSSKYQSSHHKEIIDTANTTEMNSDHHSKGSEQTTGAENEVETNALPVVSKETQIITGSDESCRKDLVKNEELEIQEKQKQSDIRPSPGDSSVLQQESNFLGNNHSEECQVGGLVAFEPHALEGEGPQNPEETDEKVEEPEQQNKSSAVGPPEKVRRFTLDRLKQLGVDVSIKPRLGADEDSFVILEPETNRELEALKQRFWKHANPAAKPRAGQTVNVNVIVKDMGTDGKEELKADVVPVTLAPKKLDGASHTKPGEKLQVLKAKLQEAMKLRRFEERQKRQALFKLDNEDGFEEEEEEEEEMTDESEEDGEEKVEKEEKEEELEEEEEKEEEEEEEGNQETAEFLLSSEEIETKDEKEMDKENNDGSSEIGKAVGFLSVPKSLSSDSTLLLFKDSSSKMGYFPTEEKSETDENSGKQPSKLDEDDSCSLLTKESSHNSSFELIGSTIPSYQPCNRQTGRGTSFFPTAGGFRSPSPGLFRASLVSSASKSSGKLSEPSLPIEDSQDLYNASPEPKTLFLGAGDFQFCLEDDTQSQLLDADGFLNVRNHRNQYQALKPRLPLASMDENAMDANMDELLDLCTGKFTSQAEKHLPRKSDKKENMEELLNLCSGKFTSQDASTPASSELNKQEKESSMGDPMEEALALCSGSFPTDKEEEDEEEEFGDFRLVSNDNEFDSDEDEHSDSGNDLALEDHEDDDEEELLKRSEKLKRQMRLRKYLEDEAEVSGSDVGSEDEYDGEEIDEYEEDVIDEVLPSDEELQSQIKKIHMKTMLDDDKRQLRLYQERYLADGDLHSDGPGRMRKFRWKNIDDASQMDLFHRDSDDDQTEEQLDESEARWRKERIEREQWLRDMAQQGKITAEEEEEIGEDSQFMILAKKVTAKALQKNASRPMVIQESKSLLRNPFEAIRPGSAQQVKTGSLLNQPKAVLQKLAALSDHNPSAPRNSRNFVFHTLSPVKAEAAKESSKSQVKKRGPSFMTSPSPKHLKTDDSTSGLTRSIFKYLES

Claspin Cdel2 = Claspin Cdel2 (human, UniProt Q9HAW4 1-1339, del1101-1209); assay: EMSA; higher binding than full-length; 10 mM Tris-HCl pH 7.5, 40 ug/ml BSA, 1 mM DTT, EDTA (50 mM as printed for EMSA; 0.5 mM for filter binding), 20 mM K-glutamate, 8% glycerol, 30 C, 1 h
Sequence of Claspin Cdel2 (Q9HAW4 other isoform, or with tags, fused parts or gaps del1101-1209): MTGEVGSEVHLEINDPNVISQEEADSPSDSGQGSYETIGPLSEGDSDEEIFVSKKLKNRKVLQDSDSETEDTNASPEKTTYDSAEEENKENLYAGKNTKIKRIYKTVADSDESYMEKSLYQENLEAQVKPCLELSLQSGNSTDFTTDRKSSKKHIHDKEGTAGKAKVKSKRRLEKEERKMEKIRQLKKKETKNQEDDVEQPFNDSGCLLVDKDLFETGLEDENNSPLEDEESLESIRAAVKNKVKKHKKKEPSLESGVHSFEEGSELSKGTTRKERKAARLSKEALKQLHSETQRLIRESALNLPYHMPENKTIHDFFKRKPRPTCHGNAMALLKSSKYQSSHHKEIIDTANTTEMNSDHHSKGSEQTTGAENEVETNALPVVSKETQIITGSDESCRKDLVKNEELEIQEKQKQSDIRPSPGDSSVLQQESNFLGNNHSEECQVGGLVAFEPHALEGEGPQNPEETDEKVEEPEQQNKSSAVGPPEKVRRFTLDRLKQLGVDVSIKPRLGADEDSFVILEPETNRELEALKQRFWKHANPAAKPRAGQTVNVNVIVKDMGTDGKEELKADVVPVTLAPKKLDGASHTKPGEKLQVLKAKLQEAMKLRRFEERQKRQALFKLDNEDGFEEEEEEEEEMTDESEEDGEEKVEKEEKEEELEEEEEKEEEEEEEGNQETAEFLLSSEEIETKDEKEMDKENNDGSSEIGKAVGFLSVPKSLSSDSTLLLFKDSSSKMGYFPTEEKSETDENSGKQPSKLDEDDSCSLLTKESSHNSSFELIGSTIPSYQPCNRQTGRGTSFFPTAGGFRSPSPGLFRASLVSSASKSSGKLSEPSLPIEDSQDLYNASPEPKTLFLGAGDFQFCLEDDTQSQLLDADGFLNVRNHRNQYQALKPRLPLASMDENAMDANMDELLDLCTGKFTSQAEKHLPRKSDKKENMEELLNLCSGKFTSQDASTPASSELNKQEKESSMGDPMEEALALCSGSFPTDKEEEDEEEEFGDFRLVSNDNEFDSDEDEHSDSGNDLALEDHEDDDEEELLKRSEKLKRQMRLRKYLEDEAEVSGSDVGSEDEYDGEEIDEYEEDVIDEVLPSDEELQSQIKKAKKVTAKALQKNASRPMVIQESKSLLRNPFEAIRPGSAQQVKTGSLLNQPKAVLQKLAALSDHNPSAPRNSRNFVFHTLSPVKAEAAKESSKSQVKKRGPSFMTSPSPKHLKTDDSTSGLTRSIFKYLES

Measured: binding result

Sequence of Claspin Cdel1 (Q9HAW4 other isoform, or with tags, fused parts or gaps): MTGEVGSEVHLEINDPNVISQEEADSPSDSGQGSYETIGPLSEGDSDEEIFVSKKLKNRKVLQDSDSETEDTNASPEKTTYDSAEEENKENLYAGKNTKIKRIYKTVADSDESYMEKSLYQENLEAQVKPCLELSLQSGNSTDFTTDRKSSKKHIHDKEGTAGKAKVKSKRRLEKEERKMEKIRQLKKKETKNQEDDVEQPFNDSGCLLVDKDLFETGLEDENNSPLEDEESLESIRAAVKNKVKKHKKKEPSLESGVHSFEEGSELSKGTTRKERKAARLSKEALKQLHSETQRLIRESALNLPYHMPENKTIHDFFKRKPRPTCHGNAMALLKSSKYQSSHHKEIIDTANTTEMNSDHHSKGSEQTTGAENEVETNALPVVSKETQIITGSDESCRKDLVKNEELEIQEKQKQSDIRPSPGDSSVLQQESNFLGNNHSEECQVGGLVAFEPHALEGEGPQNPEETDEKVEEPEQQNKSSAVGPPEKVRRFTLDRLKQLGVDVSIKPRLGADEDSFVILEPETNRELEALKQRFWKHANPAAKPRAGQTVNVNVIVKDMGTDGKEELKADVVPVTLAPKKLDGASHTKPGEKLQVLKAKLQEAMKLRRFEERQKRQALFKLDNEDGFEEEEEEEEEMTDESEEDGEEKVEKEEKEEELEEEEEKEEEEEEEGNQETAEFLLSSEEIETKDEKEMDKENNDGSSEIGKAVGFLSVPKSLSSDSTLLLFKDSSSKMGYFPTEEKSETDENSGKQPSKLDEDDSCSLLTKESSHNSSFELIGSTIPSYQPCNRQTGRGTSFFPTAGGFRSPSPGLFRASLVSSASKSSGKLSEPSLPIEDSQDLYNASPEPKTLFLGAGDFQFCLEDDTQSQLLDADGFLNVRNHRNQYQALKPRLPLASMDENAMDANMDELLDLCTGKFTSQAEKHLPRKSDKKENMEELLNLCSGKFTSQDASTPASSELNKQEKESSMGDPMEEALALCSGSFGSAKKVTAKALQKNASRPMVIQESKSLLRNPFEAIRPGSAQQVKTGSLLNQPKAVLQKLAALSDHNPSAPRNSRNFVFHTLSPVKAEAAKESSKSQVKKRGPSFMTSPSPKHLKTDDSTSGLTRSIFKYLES

B1: Y-fork DNA (mixed)
DNA 1: AACGTCGTGACTGGGCACTTGATCGGCCAACCTTTTTTTTTTTTTTTTTTTTTTTTTTTTTTTT
DNA 2: TTTTTTTTTTTTTTTTTTTTTTTTTTTTTTTTGGTTGGCCGATCAAGTGCCCAGTCACGACGTT
binds: all assays above
